{
  "source": "patent US20260103686A1",
  "about": "“MICROBIAL STRAIN, PROTEIN, AND METHOD FOR PRODUCING GALLIC ACID USING MICROBIAL STRAIN OR PROTEIN” (UNIVERSITY OF TSUKUBA, priority 2022, published 2026)",
  "molecules": {"B1": {"name": "PoPobA: Polaromonas sp.-derived PobA, protocatechuic acid 5-hydroxylase (SEQ ID NO: 22) (protein, listed as Polaromonas sp.)", "chain": "MRTQVGIVGAGPAGLMLSHMLHLEGIESVIIERASREHVQSRLRAGVLEHGTVDMLRELGLGERIGKIGLEQHAIDFRFGGESHRLDFHQATNGRSAWVYPQHELVTDLMNARMQAGAEILFETPVTRIDGLHTSKPTVHFEQGGEPRELVCDFVVGCDGFRGVCRDAIPDTVLKTYDRVYPFGWLGILAEAPAPTREITWGCHEEGFAMLSIRSPSVTRLYLQCEPDDDPDHWSDDHIWAELHKRLDVPGMPPVNEGKIMQKGVTAMRSFLAEPMQYGKLFLAGDAAHIVPPTGAKGLNSAMADVKVLGRGLAEKYRRGADHLLERYSQICLKRMWLVQRFSAGLCTMVHQFPGDNAFVRRLQRADLDYMTGTAAGRLAFSENFTGLPIE"}, "B2": {"name": "HgPobA: Hylemonella gracilis-derived PobA, protocatechuic acid 5-hydroxylase (SEQ ID NO: 20) (protein, listed as Hylemonella gracilis)", "chain": "MSYPTRTQVAIIGAGPSGLMLGALLHKAGIDTVVLERQSGDYVLGRIRAGVLEQVTMDLMDEIGVGARMHQEGLVHGGFDMLFQGQRHRIDMNRLTGGQNVMVYGQTEVTRDLMDARQQAGLTTIYEAANVAIHDFGSGKPRVTYEKDGKTHELQCDFIAGCDGFHGVCRDTVKKSASASAIREYEKVYNFGWLGLLSDTPPVHHELIYVNSERGFALCSQRSATRSRYYLQVPLTDKVEQWSDQAFWDELKLRLDPQAREHLVTGPSIEKSIAPLRSFVTEPLRFGRLFLAGDAGHIVPPAGAKGLNLAATDVKYLSAALTEFYQGKSEAGINHYSERCLKRIWRAERFSWWFTSLMHRFPENGEIGQKLQEAELDYIVHSETGARSVAENFVGLPLDFGA"}, "B3": {"name": "HgPobA-TY: mutant protein of HgPobA with two mutations T302A and Y393F (protein, listed as Hylemonella gracilis)", "chain": "MSYPTRTQVAIIGAGPSGLMLGALLHKAGIDTVVLERQSGDYVLGRIRAGVLEQVTMDLMDEIGVGARMHQEGLVHGGFDMLFQGQRHRIDMNRLTGGQNVMVYGQTEVTRDLMDARQQAGLTTIYEAANVAIHDFGSGKPRVTYEKDGKTHELQCDFIAGCDGFHGVCRDTVKKSASASAIREYEKVYNFGWLGLLSDTPPVHHELIYVNSERGFALCSQRSATRSRYYLQVPLTDKVEQWSDQAFWDELKLRLDPQAREHLVTGPSIEKSIAPLRSFVTEPLRFGRLFLAGDAGHIVPPAGAKGLNLAATDVKYLSAALTEFYQGKSEAGINHYSERCLKRIWRAERFSWWFTSLMHRFPENGEIGQKLQEAELDYIVHSETGARSVAENFVGLPLDFGA"}, "B4": {"name": "HyPobA: Hydrogenophaga sp.-derived PobA, protocatechuic acid 5-hydroxylase (SEQ ID NO: 21) (protein, listed as Hydrogenophaga sp.)", "chain": "MRTQVGIIGAGPAGLMLAHMLHLEGIESVIIERSKREHVQNRLRAGVLEQGTVEMMRELGLGERIGQLGLEQHRIDFRFGGESHPIDFHEATGGRSAWVYPQHEVVKDLMAARTAAGAQMLFETPVTAIEGIDGTRPVVRFEKDGVAGELHCDFVVGCDGFRGISRRAIPAREGQVHDRIYPFGWLGILAEAPPATNEVTWGCHEDGFAMMSIRTPSVTRLYLQCEPDENPDHWSDDRIWSALHKRLDVPGLPPINEGRITQKGVTAMRSFLFEPMQHGRLFLAGDAAHIVPPTGAKGLNSAMADVKVLARALEQHYQRGSQDLLARYSKTCLKRMWLVQRFSAGLCTMVHSFAGDSSFVRRLQRADLDYMTGTTAGRLQFSENFTGLPID"}, "B5": {"name": "PaPobA: Pseudomonas aeruginosa-derived PobA (SEQ ID NO: 28), known enzyme with high PCA-hydroxylating activity (protein, listed as Pseudomonas aeruginosa)", "chain": "MKTQVAIIGAGPSGLLLGQLLHKAGIDNVILERQTPDYVLGRIRAGVLEQGMVDLLREAGVDRRMARDGLVHEGVEIAFAGQRRRIDLKRLSGGKTVTVYGQTEVTRDLMEAREACGATTVYQAAEVRLHDLQGERPYVTFERDGERLRLDCDYIAGCDGFHGISRQSIPAERLKVFERVYPFGWLGLLADTPPVSHELIYANHPRGFALCSQRSATRSRYYVQVPLSEKVEDWSDERFWTELKARLPSEVAEKLVTGPSLEKSIAPLRSFVVEPMQHGRLFLAGDAAHIVPPTGAKGLNLAASDVSTLYRLLLKAYREGRGELLERYSAICLRRIWKAERFSWWMTSVLHRFPDTDAFSQRIQQTELEYYLGSEAGLATIAENYVGLPYEEIE"}},
  "key": {"[1]": {"test": "Reaction kinetic analysis of purified enzymes, substrate PCA (NADPH absorbance at 340 nm)", "format": "biochemical", "conditions": "relative to PaPobA", "description": "Using the purified enzyme liquids of HgPobA, HgPobA-TY, PoPobA, HyPobA and PaPobA described above, a reaction kinetic analysis was conducted."}, "[2]": {"test": "Analysis of gallic acid-producing activities of purified enzymes (HPLC)", "format": "biochemical", "conditions": "2 mM PCA, 0.5 mM NADPH, 10 μg enzyme, 30° C., 30 minutes, pH 7.9", "description": "Using the purified enzyme liquids of HyPobA, PoPobA, HgPobA-TY and PaPobA described above, the gallic acid-producing activities were analyzed.\nBy adding 10 μM FAD, 0.5 mM NADPH, 2 mM PCA and 10 μg of the respective purified enzyme liquids to 20 mM Tris-HCl buffer (pH 7.9), 100 μL of reaction liquids were prepared."}},
  "data": [
    {"molecule": "B1", "values": [
      {"measurement": "kcat value for PCA compared with that of PaPobA", "setting": "[1]", "value": "higher kcat values than that of PaPobA"},
      {"measurement": "relative activity of producing gallic acid from PCA (PaPobA regarded as 1)", "setting": "[2]", "value": 20, "unit": "times"}
    ]},
    {"molecule": "B2", "values": [
      {"measurement": "kcat value for PCA compared with that of PaPobA", "setting": "[1]", "value": "higher kcat values than that of PaPobA"}
    ]},
    {"molecule": "B3", "values": [
      {"measurement": "Km value for PCA compared with that of PaPobA", "setting": "[1]", "value": "one third or less"},
      {"measurement": "relative activity of producing gallic acid from PCA (PaPobA regarded as 1)", "setting": "[2]", "value": "eight"}
    ]},
    {"molecule": "B4", "values": [
      {"measurement": "kcat value for PCA compared with that of PaPobA", "setting": "[1]", "value": "higher kcat values than that of PaPobA"},
      {"measurement": "relative activity of producing gallic acid from PCA (PaPobA regarded as 1)", "setting": "[2]", "value": 20, "unit": "times"}
    ]},
    {"molecule": "B5", "values": [
      {"measurement": "relative activity of producing gallic acid from PCA (PaPobA regarded as 1)", "setting": "[2]", "value": 1, "unit": "times"}
    ]}
  ]
}
